According to patent publication US20110293599A1 (EWHA UNIVERSITY INDUSTRY COLLABORATION FOUNDATION, published 2011):

T1: Myc-tagged MyoD, full length 318 aa (FL) (UniProt P10085 1-318)
T1 construct: Overexpressed in 293T cells; also called MyoD FL; not shown: Myc tag from the pCMV-Myc vector
T1 sequence (looked up): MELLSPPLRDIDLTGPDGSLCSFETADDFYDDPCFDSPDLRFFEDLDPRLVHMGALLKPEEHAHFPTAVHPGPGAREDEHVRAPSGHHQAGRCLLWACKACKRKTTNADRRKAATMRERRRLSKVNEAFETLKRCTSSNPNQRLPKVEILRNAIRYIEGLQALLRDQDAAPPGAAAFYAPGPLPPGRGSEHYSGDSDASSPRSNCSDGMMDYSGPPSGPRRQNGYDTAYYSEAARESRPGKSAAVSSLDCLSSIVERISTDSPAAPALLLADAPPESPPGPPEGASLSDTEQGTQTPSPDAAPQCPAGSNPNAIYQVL

B1: TAZ truncation ΔN2 (aa 164-395 TAZ), lacking the WW domain (other)
chain: NHVNLHPSITSTSVPQRSMAVSQPNLAMNHQHQQVVATSLSPQNHPTQNQPTGLMSVPNALTTQQQQQQKLRLQRIQMERERIRMRQEELMRQEAALCRQLPMETETMAPVNTPAMSTDMRSVTNSSSDPFLNGGPYHSREQSTDSGLGLGCYSVPTTPEDFLSNMDEMDTGENSGQTPMTVNPQQTRFPDFLDCLPGTNVDLGTLESEDLIPLFNDVESALNKSEPFLTWL
notes: Cotransfected with MyoD into 293T cells; not shown: Flag tag, implied by the precipitation with Flag-M2 beads
B2: NT MyoD (MyoD aa 1-102), Myc-tagged (other, UniProt P10085 1-102, looked up)
chain: MELLSPPLRDIDLTGPDGSLCSFETADDFYDDPCFDSPDLRFFEDLDPRLVHMGALLKPEEHAHFPTAVHPGPGAREDEHVRAPSGHHQAGRCLLWACKACK
notes: Coexpressed with Flag-TAZ in 293T cells; not shown: Myc tag from the pCMV-Myc vector

Tests used:
[1] = target: T1, Myc-tagged MyoD, full length 318 aa (FL); assay: co-immunoprecipitation from 293T cells, Flag-M2 beads, MyoD immunoblot
[2] = target: T2, Flag-tagged TAZ (transcriptional coactivator with PDZ-binding motif), full length (1-395 aa) (Mus musculus (Mouse), UniProt Q9EPK5 1-395); assay: co-immunoprecipitation from 293T cells, Flag-M2 beads, immunoblot
T2 construct: also called TAZ FL; Flag-TAZ; not shown: Flag tag

Binder	binding result [1]	binding result [2]
B1	no binding	
B2		no binding
